Biological target: T1, rhCD6FC/Chimera (R and D systems) (human, UniProt P30203 25-398)
T1 construct: Bought reagent; also called CD6 receptor; Fc part of the bought chimera not given
T1 sequence (looked up): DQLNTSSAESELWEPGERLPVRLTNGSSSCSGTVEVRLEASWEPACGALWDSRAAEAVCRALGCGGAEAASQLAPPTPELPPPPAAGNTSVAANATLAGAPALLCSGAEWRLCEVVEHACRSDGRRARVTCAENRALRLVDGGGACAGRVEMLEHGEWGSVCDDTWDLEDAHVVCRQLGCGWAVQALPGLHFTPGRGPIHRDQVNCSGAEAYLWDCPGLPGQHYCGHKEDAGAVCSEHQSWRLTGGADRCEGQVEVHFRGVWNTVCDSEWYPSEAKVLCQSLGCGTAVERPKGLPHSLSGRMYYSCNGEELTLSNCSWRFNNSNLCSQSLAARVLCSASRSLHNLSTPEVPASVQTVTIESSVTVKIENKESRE
Assay: ELISA, plate-bound rhCD6-Fc, T1h 0.2 mg/ml with varying rhALCAM-Fc, anti human IgG (Fab)2 ALP detection
Procedure: The rhCD6FC/Chimera (R and D systems) (100 μg/ml) was diluted in coating buffer and 100 μl was added to each well of a 96 well Nunc-Maxisorp plate. The plate was then incubated at 4° C. overnight. The Plate was washed thrice with PBS Tween 20. Subsequently, 200 μl of blocking solution (2% BSA+0.1%Tween 20 in 1× PBS) was added and incubated for 1 hour at 37° C. After incubation, the plate was washed again with PBS Tween thrice, followed by the addition of T1h monoclonal antibody (0.2 mg/ml) and .rhALCAMFc (R and D systems) at varying concentrations. This was then incubated for an hour at 37° C. The plate was washed 3 times subsequently with PBS Tween. To the wells 200 μl of anti human IgG (Fab)₂ ALP (1:20000) diluted in blocking buffer was added and incubated for 1 hour at 37° C. The plate was washed thrice with PBS tween and 200 μl of p-Nitrophenyl Phosphate (PNPP) substrate is added to each well and incubated at 37° C. till colour develops around 15 minutes. Reading was taken at 405 nm using a BIOTEK Micro Plate Reader.

B1: T1h, humanized IgG1 isotype anti-CD6 monoclonal antibody (antibody, V domains shown)
VH: EVQLVESGGGLVKPGGSLKLSCAASGFKFSRYAMSWVRQAPGKRLEWVATISSGGSYIYYPDSVKGRFTISRDNVKNTLYLQMSSLRSEDTAMYYCARRDYDLDYFDSWGQGTLVTVSS
VL: DIQMTQSPSSLSASVGDRVTITCKASRDIRSYLTWYQQKPGKAPKTLIYYATSLADGVPSRFSGSGSGQDYSLTISSLESDDTATYYCLQHGESPFTLGSGTKLEIK
notes: also called humanized IOR-T1; sT1h
B1: binds.

From US20110002939A1 (BIOCON, published 2011)
